Measurements published in publication PMC7079103.

How the values were obtained:
Assay in all cases: HRP-coupled steady-state kinetics
Assay type in all cases: biochemical, Phanerodontia chrysosporium
Conditions in all cases: apparent, 50 mM potassium phosphate pH 7.5, O2 as co-substrate
[1] = substrate: CC(O)CCCO
[2] = substrate: CC1CCC(O)O1
[3] = substrate: CCCCCC=O
[4] = substrate: CCCCCCO
[5] = substrate: OCCCCCCO
[6] = substrate: OCCCCCO
[7] = substrate: OCCOCCO

B1: alcohol oxidase from Phanerochaete chrysosporium (PcAOX; F101S-PcAOX = AOX*) (Phanerodontia chrysosporium; F101S) (protein)
chain: MGHPEEVDVIVCGGGPAGCVVAGRLAYADPTLKVMLIEGGANNRDDPWVYRPGIYVRNMQRNGINDKATFYTDTMASSYLRGRRSIVPCANILGGGSSINSQMYTRASASDWDDFKTEGWTCKDLLPLMKRLENYQKPCNNDTHGYDGPIAISNGGQIMPVAQDFLRAAHAIGVPYSDDIQDLTTAHGAEIWAKYINRHTGRRSDAATAYVHSVMDVQDNLFLRCNARVSRVLFDDNNKAVGVAYVPSRNRTHGGKLHETIVKARKMVVLSSGTLGTPQILERSGVGNGELLRQLGIKIVSDLPGVGEQYQDHYTTLSIYRVSNESITTDDFLRGVKDVQRELFTEWEVSPEKARLSSNAIDAGFKIRPTEEELKEMGPEFNELWNRYFKDKPDKPVMFGSIVAGAYADHTLLPPGKYITMFQYLEYPASRGKIHIKSQNPYVEPFFDSGFMNNKADFAPIRWSYKKTREVARRMDAFRGELTSHHPRFHPASPAACKDIDIETAKQIYPDGLTVGIHMGSWHQPSEPYKHDKVIEDIPYTEEDDKAIDDWVADHVETTWHSLGTCAMKPREQGGVVDKRLNVYGTQNLKCVDLSICPDNLGTNTYSSALLVGEKGADLIAEELGLKIKTPHAPVPHAPVPTGRPATQQVR
- Km [1]: 52.6 mM
- kcat [1]: 1.28 s⁻¹
- kcat/Km [1]: 24.3 M ^-1 s^-1
- Km [2]: 95.5 mM
- kcat [2]: 1.13 s⁻¹
- kcat/Km [2]: 11.8 M ^-1 s^-1
- Km [3]: 0.20 mM
- kcat [3]: 0.15 s⁻¹
- kcat/Km [3]: 750 M ^-1 s^-1
- Km [4]: 3.0 mM
- kcat [4]: 0.56 s⁻¹
- kcat/Km [4]: 187 M ^-1 s^-1
- Km [5]: 12.9 mM
- kcat [5]: 4.07 s⁻¹
- kcat/Km [5]: 316 M ^-1 s^-1
- Km [6]: 69.6 mM
- kcat [6]: 3.48 s⁻¹
- kcat/Km [6]: 50.0 M ^-1 s^-1
- Km [7]: 12.3 mM
- kcat [7]: 0.73 s⁻¹
- kcat/Km [7]: 59.3 M ^-1 s^-1
